± gives the standard deviation of the averaged measurements.
Experiments:
hTERT-HMEC = assay: percentage of EdU-negative (G0-arrested) nuclei per well, 72 h; higher = more G0 arrest; conditions: reference: sequence is the full UniProt precursor, the tested protein was the secreted form or ectodomain
MCF7 = assay: as above; conditions: reference: sequence is the full UniProt precursor, the tested protein was the secreted form or ectodomain
[1] = protein concentration 0.01422 µM
[2] = protein concentration 0.1422 µM
[3] = protein concentration 0.0225 µM
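Note: secreted proteins added to cultured cells, EdU pulse at the end, nuclei found by Hoechst imaging, EdU status from nuclear versus surrounding ring intensity ratio, PBS as neutral control.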

| Sequence | percentage of EdU-negative (hTERT-HMEC; [1]) | percentage of EdU-negative (hTERT-HMEC; [2]) | percentage of EdU-negative (MCF7; [1]) | percentage of EdU-negative (MCF7; [2]) | percentage of EdU-negative (hTERT-HMEC; [3]) | percentage of EdU-negative (hTERT-HMEC; protein concentration 0.225 µM) | percentage of EdU-negative (MCF7; [3]) | percentage of EdU-negative (MCF7; protein concentration 0.225 µM) |
| --- | --- | --- | --- | --- | --- | --- | --- | --- |
| MGAPACALALCVAVAIVAGASSESLGTEQRVVGRAAEVPGPEPGQQEQLVFGSGDAVELSCPPPGGGPMGPTVWVKDGTGLVPSERVLVGPQRLQVLNASHEDSGAYSCRQRLTQRVLCHFSVRVTDAPSSGDDEDGEDEAEDTGVDTGAPYWTRPERMDKKLLAVPAANTVRFRCPAAGNPTPSISWLKNGREFRGEHRIGGIKLRHQQWSLVMESVVPSDRGNYTCVVENKFGSIRQTYTLDVLERSPHRPILQAGLPANQTAVLGSDVEFHCKVYSDAQPHIQWLKHVEVNGSKVGPDGTPYVTVLKTAGANTTDKELEVLSLHNVTFEDAGEYTCLAGNSIGFSHHSAWLVVLPAEEELVEADEAGSVYAGILSYGVGFFLFILVVAAVTLCRLRSPPKKGLGSPTVHKISRFPLKRQVSLESNASMSSNTPLVRIARLSSGEGPTLANVSELELPADPKWELSRARLTLGKPLGEGCFGQVVMAEAIGIDKDRAAKPVTVAVKMLKDDATDKDLSDLVSEMEMMKMIGKHKNIINLLGACTQGGPLYVLVEYAAKGNLREFLRARRPPGLDYSFDTCKPPEEQLTFKDLVSCAYQVARGMEYLASQKCIHRDLAARNVLVTEDNVMKIADFGLARDVHNLDYYKKTTNGRLPVKWMAPEALFDRVYTHQSDVWSFGVLLWEIFTLGGSPYPGIPVEELFKLLKEGHRMDKPANCTHDLYMIMRECWHAAPSQRPTFKQLVEDLDRVLTVTSTDEYLDLSAPFEQYSPGGQDTPSSSSSGDDSVFAHDLLPPAPPSSGGSRT | 5.58 ± 0.063% | 5.64 ± 0.3% | 27.1 ± 3.1% | 25.5 ± 3.1% | – | – | – | – |
| MGAYARASGVCARGCLDSAGPWTMSRALRPPLPPLCFFLLLLAAAGARAGGYETCPTVQPNMLNVHLLPHTHDDVGWLKTVDQYFYGIKNDIQHAGVQYILDSVISALLADPTRRFIYVEIAFFSRWWHQQTNATQEVVRDLVRQGRLEFANGGWVMNDEAATHYGAIVDQMTLGLRFLEDTFGNDGRPRVAWHIDPFGHSREQASLFAQMGFDGFFFGRLDYQDKWVRMQKLEMEQVWRASTSLKPPTADLFTGVLPNGYNPPRNLCWDVLCVDQPLVEDPRSPEYNAKELVDYFLNVATAQGRYYRTNHTVMTMGSDFQYENANMWFKNLDKLIRLVNAQQAKGSSVHVLYSTPACYLWELNKANLTWSVKHDDFFPYADGPHQFWTGYFSSRPALKRYERLSYNFLQVCNQLEALVGLAANVGPYGSGDSAPLNEAMAVLQHHDAVSGTSRQHVANDYARQLAAGWGPCEVLLSNALARLRGFKDHFTFCQQLNISICPLSQTAARFQVIVYNPLGRKVNWMVRLPVSEGVFVVKDPNGRTVPSDVVIFPSSDSQAHPPELLFSASLPALGFSTYSVAQVPRWKPQARAPQPIPRRSWSPALTIENEHIRATFDPDTGLLMEIMNMNQQLLLPVRQTFFWYNASIGDNESDQASGAYIFRPNQQKPLPVSRWAQIHLVKTPLVQEVHQNFSAWCSQVVRLYPGQRHLELEWSVGPIPVGDTWGKEVISRFDTPLETKGRFYTDSNGREILERRRDYRPTWKLNQTEPVAGNYYPVNTRIYITDGNMQLTVLTDRSQGGSSLRDGSLELMVHRRLLKDDGRGVSEPLMENGSGAWVRGRHLVLLDTAQAAAAGHRLLAEQEVLAPQVVLAPGGGAAYNLGAPPRTQFSGLRRDLPPSVHLLTLASWGPEMVLLRLEHQFAVGEDSGRNLSAPVTLNLRDLFSTFTITRLQETTLVANQLREAASRLKWTTNTGPTPHQTPYQLDPANITLEPMEIRTFLASVQWKEVDG | – | – | – | – | 4.43 ± 0.26% | 5.51 ± 0.44% | 24.7 ± 1.5% | 24.7 ± 1.2% |
| MGCLLFLLLWALLQAWGSAEVPQRLFPLRCLQISSFANSSWTRTDGLAWLGELQTHSWSNDSDTVRSLKPWSQGTFSDQQWETLQHIFRVYRSSFTRDVKEFAKMLRLSYPLELQVSAGCEVHPGNASNNFFHVAFQGKDILSFQGTSWEPTQEAPLWVNLAIQVLNQDKWTRETVQWLLNGTCPQFVSGLLESGKSELKKQVKPKAWLSRGPSPGPGRLLLVCHVSGFYPKPVWVKWMRGEQEQQGTQPGDILPNADETWYLRATLDVVAGEAAGLSCRVKHSSLEGQDIVLYWGGSYTSMGLIALAVLACLLFLLIVGFTSRFKRQTSYQGVL | – | – | – | – | 4.97 ± 0.24% | 5.04 ± 0.17% | 23.9 ± 2.6% | 27.61 ± 0.11% |
| MGCRAASGLLPGVAVVLLLLLQSTQSVYIQYQGFRVQLESMKKLSDLEAQWAPSPRLQAQSLLPAVCHHPALPQDLQPVCASQEASSIFKTLRTIANDDCELCVNVACTGCL | – | – | – | – | 4.91 ± 1.5% | 9.77 ± 1.3% | 27.3 ± 2.2% | 27.8 ± 1.8% |
| MGCWGQLLVWFGAAGAILCSSPGSQETFLRSSPLPLASPSPRDPKVSAPPSILEPASPLNSPGTEGSWLFSTCGASGRHGPTQTQCDGAYAGTSVVVTVGAAGQLRGVQLWRVPGPGQYLISAYGAAGGKGAKNHLSRAHGVFVSAIFSLGLGESLYILVGQQGEDACPGGSPESQLVCLGESRAVEEHAAMDGSEGVPGSRRWAGGGGGGGGATYVFRVRAGELEPLLVAAGGGGRAYLRPRDRGRTQASPEKLENRSEAPGSGGRGGAAGGGGGWTSRAPSPQAGRSLQEGAEGGQGCSEAWATLGWAAAGGFGGGGGACTAGGGGGGYRGGDASETDNLWADGEDGVSFIHPSSELFLQPLAVTENHGEVEIRRHLNCSHCPLRDCQWQAELQLAECLCPEGMELAVDNVTCMDLHKPPGPLVLMVAVVATSTLSLLMVCGVLILVKQKKWQGLQEMRLPSPELELSKLRTSAIRTAPNPYYCQVGLGPAQSWPLPPGVTEVSPANVTLLRALGHGAFGEVYEGLVIGLPGDSSPLQVAIKTLPELCSPQDELDFLMEALIISKFRHQNIVRCVGLSLRATPRLILLELMSGGDMKSFLRHSRPHLGQPSPLVMRDLLQLAQDIAQGCHYLEENHFIHRDIAARNCLLSCAGPSRVAKIGDFGMARDIYRASYYRRGDRALLPVKWMPPEAFLEGIFTSKTDSWSFGVLLWEIFSLGYMPYPGRTNQEVLDFVVGGGRMDPPRGCPGPVYRIMTQCWQHEPELRPSFASILERLQYCTQDPDVLNSLLPMELGPTPEEEGTSGLGNRSLECLRPPQPQELSPEKLKSWGGSPLGPWLSSGLKPLKSRGLQPQNLWNPTYRS | – | – | – | – | 5.75 ± 1.3% | 10.5 ± 0.56% | 26.78 ± 0.18% | 28.3 ± 2.3% |

— the supplement of paper PMC11316812
